Patent US20260167959A1, “APTAZYME-BASED REGULATABLE GENE EXPRESSION SYSTEMS” (REJUVENATE BIO INC, priority 2022, published 2026)
Numbering of substitutions follows the chain as printed.

B1: RA267 (nucleic acid)
DNA: GCGCGTCCTGGATTCGCGGAAACGCGTACATCCAGCTGACGAGTGGAATACCAGCATCGTCTTGATGCCCTTGGAAGTCCCCCAAATAGGACGAAACGCGC
modifications: expressed or natural sequence
B2: RA270 (nucleic acid)
DNA: GCGCGTCCTGGATTCGCGGAAACGCGTACATCCAGCTGACGAGTCCCAAATAGGACGAAGAATACCAGCATCGTCTTGATGCCCTTGGAAGTCTAACGCGC
modifications: expressed or natural sequence
B3: RA263 (nucleic acid)
DNA: GCGCGTCCTGGATTCGCGGAAACGCGTACATCCAGCTGACGAGTCCCAAAAGTGATACCAGCATCGTCTTGATGCCCTTGGCAGCACTTAGGACGAAACGCGC
modifications: expressed or natural sequence
B4: RA273 (nucleic acid)
DNA: GCGCGTCCTGGATTCGCGGGAATACCAGCATCGTCTTGATGCCCTTGGAAGTCCGAAACGCGTACATCCAGCTGACGAGTCCCAAATAGGACGAAACGCGC
modifications: expressed or natural sequence
B5: RA262 (nucleic acid)
DNA: GCTGTCACCGGAATACCAGCATCGTCTTGATGCCCTTGGAAGTCCGGTCTGATGAGTCCCATAAGGACGAAACAGC
modifications: expressed or natural sequence
B6: RA256 (nucleic acid)
DNA: GCGCGTCCTGGATTCGCGGAAACGCGTACATGAGAATACCAGCATCGTCTTGATGCCCTTGGAAGTCTCCCAGCTGACGAGTCCCAAATAGGACGAAACGCGC
modifications: expressed or natural sequence
B7: RA261 (nucleic acid)
DNA: GCGCGTCCTGGATTCGCGGAAACGCGTACATCCAGCTGACGAGTCCCAACGAGAATACCAGCATCGTCTTGATGCCCTTGGAAGTCTCGATAGGACGAAACGCGC
modifications: expressed or natural sequence
B8: RA271 (nucleic acid)
DNA: B7 DNA with G51C, A52G, T87C, C88G
modifications: expressed or natural sequence
B9: RA257 (nucleic acid)
DNA: GCGCGTCCTGGATTCGCGGAAACGCCGGAATACCAGCATCGTCTTGATGCCCTTGGAAGTCCGGTACATCCAGCTGACGAGTCCCAAATAGGACGAAACGCGC
modifications: expressed or natural sequence
B10: RA252 (nucleic acid)
DNA: GCGCGTCCTGGATTCGCGGAAGTGATACCAGCATCGTCTTGATGCCCTTGGCAGCACTAACGCGTACATCCAGCTGACGAGTCCCAAATAGGACGAAACGCGC
modifications: expressed or natural sequence
B11: RA272 (nucleic acid)
DNA: GCGCGTCCTGGATTCGCGGAAACGCGTACATCCAGCTGACGAGTCCCAAATAGGACGAAACGCGCAGAATACCAGCATCGTCTTGATGCCCTTGGAAGTCT
modifications: expressed or natural sequence
B12: RA254 (nucleic acid)
DNA: GCGCGTCCTGGATTCGCGGAAACGCGTACATCCAGCAGAATACCAGCATCGTCTTGATGCCCTTGGAAGTCTTGACGAGTCCCAAATAGGACGAAACGCGC
modifications: expressed or natural sequence
B13: RA260 (nucleic acid)
DNA: GCGCGTCCTGGATTCGCGGAAACGCCGGAATACCAGCATCGTCTTGATGCCCTTGGAAGTCCGGCGTACATCCAGCTGACGAGTCCCAAATAGGACGAAACGCGC
modifications: expressed or natural sequence
B14: RA251 (nucleic acid)
DNA: GCGCGTCCTGGACCGGAATACCAGCATCGTCTTGATGCCCTTGGAAGTCCGGTTCGCGGAAACGCGTACATCCAGCTGACGAGTCCCAAATAGGACGAAACGCGC
modifications: expressed or natural sequence
B15: RA255 (nucleic acid)
DNA: GCGCGTCCTGGATTCGCGGAAACGCGTACATCCAGCTGACGAGTCCCAAATAGGACGAAACCGGAATACCAGCATCGTCTTGATGCCCTTGGAAGTCCGGCGCGC
modifications: expressed or natural sequence
B16: RA264 (nucleic acid)
DNA: GCGCGTCCTGGATTCGCGGAAACGCGTACATCCAGCTAGAATACCAGCATCGTCTTGATGCCCTTGGAAGTCTGACGAGTCCCAAATAGGACGAAACGCGC
modifications: expressed or natural sequence
B17: RA025 (nucleic acid)
DNA: GCGCGTCCCGAGAATACCAGCATCGTCTTGATGCCCTTGGAAGTCTCGTGGATTCGCGGAAACGCGTACATCCAGCTGACGAGTCCCAAATAGGACGAAACGCGC
modifications: expressed or natural sequence
B18: RA258 (nucleic acid)
DNA: GCGCGTCCTGGATTAGTGATACCAGCATCGTCTTGATGCCCTTGGCAGCACTCGCGGAAACGCGTACATCCAGCTGACGAGTCCCAAATAGGACGAAACGCGC
modifications: expressed or natural sequence
B19: RA265 (nucleic acid)
DNA: GCGCGTCCTGGATTCGCGGAAACGCGTACATCCAGCTGACGAGTCCCAAAGGAATACCAGCATCGTCTTGATGCCCTTGGAAGTCCTAGGACGAAACGCGC
modifications: expressed or natural sequence
B20: RA259 (nucleic acid)
DNA: GCGCGTCCTGGATTCGCGGAAACGCGTACATCCAGCTGACGAGTCCCAAATAGGACGAAAAGTGATACCAGCATCGTCTTGATGCCCTTGGCAGCACTCGCGC
modifications: expressed or natural sequence
B21: RA268 (nucleic acid)
DNA: GCGCGTCCTGGATTCGCGGAAACGCGTACATCCAGCTGACGAGTCCCAAATAGGACGAAACGCGGAGAATACCAGCATCGTCTTGATGCCCTTGGAAGTCTCC
modifications: expressed or natural sequence
B22: RA269 (nucleic acid)
DNA: GCGCGTCCTGGATTCGCGGAAACGCGAGAATACCAGCATCGTCTTGATGCCCTTGGAAGTCTTACATCCAGCTGACGAGTCCCAAATAGGACGAAACGCGC
modifications: expressed or natural sequence
B23: RA026 (nucleic acid)
DNA: GCGCGTCCTGGATTCGCGGAAACGCGTACATCCAGCTGACGAGTCCGAGAATACCAGCATCGTCTTGATGCCCTTGGAAGTCTCGCCAAATAGGACGAAACGCGC
modifications: expressed or natural sequence
B24: RA253 (nucleic acid)
DNA: GCGCGTCCTGGATTCGCGGAAACGCGTACATGGAATACCAGCATCGTCTTGATGCCCTTGGAAGTCCCCAGCTGACGAGTCCCAAATAGGACGAAACGCGC
modifications: expressed or natural sequence
B25: RA266 (nucleic acid)
DNA: GCGCGTCCTGGATTCGCGGAAACGCGCGAGAATACCAGCATCGTCTTGATGCCCTTGGAAGTCTCGTACATCCAGCTGACGAGTCCCAAATAGGACGAAACGCGC
modifications: expressed or natural sequence

The molecules below were run on Renilla luciferase RNA (assay: Barcoded aptazyme variant library screen: un-cleaved Renilla luciferase RNA by barcode read counts, HEK293-T cells). Conditions: un-cleaved Renilla luciferase RNA, HEK293-T cells cultured with 1 mM theophylline (ON) over without theophylline (OFF); barcode read counts, triplicate.
Format: cell-based
Excerpt: Based on the findings from Example 1, an aptazyme variant library was generated from the T3H48 ribozyme with one of seven variant theophylline aptamers inserted sequentially after each nucleotide of the DNA sequence encoding the T3H48 ribozyme sequence. […] The seven variant theophylline aptamers vary in their communication channels, which are the ribonucleotides of the aptamer that attach to the ribozyme sequence (see, Table 2).
The library was barcoded with unique sequences of nine nucleotides flanked by forward and reverse primer amplification sequences.
The aptazyme library was then PCR amplified and cloned into the psiCHECK™-2 dual luciferase vector in the 3′ UTR of the Renilla luciferase gene. […] The next day, the cells were isolated followed by DNA and RNA extraction using standard methods. The purified RNA was then converted to cDNA and the barcoded portion of the aptazyme library was PCR amplified. Similarly, the DNA was PCR amplified and all the samples were sequenced. All experimental conditions (with theophylline and without theophylline) were performed in triplicate. The read count for each barcode was determined with a custom build code and the data was normalized to identify the un-cleaved fractions of the Renilla luciferase RNA from cells that were cultured in the presence or absence of theophylline for each aptazyme, which was used to obtain the fold-change between ON- and OFF-states (FIG. 2).

Point of comparison: B7, “Fold change in RNA expression between the ON state and the OFF state” value 1.1 fold. Against it:
- RA215 (DNA GCTGTCACCGGATGTGCTTTCCGGTACGTGAGGTCCGTGAGGACGAAACAGC; expressed or natural sequence) — higher, 1.2 fold
- B1 — lower, 1.0 fold
- B2 — lower, 1.0 fold
- B3 — the same, 1.1 fold
- B4 — lower, 1.0 fold
- B5 — the same, 1.1 fold
- B6 — the same, 1.1 fold
- B8 — lower, 1.0 fold
- B9 — the same, 1.1 fold
- B10 — the same, 1.1 fold
- B11 — lower, 1.0 fold
- B12 — the same, 1.1 fold
- B13 — the same, 1.1 fold
- B14 — the same, 1.1 fold
- B15 — the same, 1.1 fold
- B16 — lower, 1.0 fold
- B17 — higher, 2.5 fold
- B18 — the same, 1.1 fold
- B19 — lower, 1.0 fold
- B20 — the same, 1.1 fold
- B21 — lower, 1.0 fold
- B22 — lower, 1.0 fold
- B23 — higher, 2.4 fold
- B24 — the same, 1.1 fold
- B25 — lower, 1.0 fold
